Laboratory results taken from the nanobody polyreactivity screen of Harvey et al. (2022).

Experiment: yeast display, Sf9 membrane polyspecificity reagent, FACS + sequencing; frameworks hold sequencing errors
How it was run: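 Genes from sorted yeast were amplified by colony PCR, read by MiSeq 2 × 250 sequencing and filtered on CDR length. These cells carried a synthetic nanobody library in Saccharomyces cerevisiae BJ5465 and were sorted by FACS into low and high (top ~1%) gates on anti-HA and streptavidin fluorescence. Polyreactivity is labelled according to the gate of origin.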
For “QVQLVESGGGLVQAGGSLRLSCAASGFIFSVYAMGWYRQAPGKERELVAAITESGGSTYYADSVKGRFTISRDNAKNSVYLQMNSLKPEDTAVYYCAAAIRPYEYEYWGQGTQVTVSS”, the “polyreactivity (PSR sort gate)” value was “low polyreactivity”. In the case of “QVQLVESGGGLVQAGGSLRLSCAASGFIFSVYAMGWYRQAPGTEREFVAAIRWSGGSTYYADSVKGRFTISRDNAKNTVYLQMNSLKPEDTAVYYCAARARDHYGYWGQGTQVTVSS”, the “polyreactivity (PSR sort gate)” value is reported as “high polyreactivity”. For “QVQLVESGGGLVQAGGSLRLSCAASGFIFSVYTMGWYRQAPGKERELVASITWSGGDTYYADSVKGRFTISRDNAKNTVYLQMNSLKPEDTAVYYCNVDAGFHDSYHAWNLRYDYWGQGTQVTVSS”, the “polyreactivity (PSR sort gate)” value was “low polyreactivity”. With “QVQLVESGGGLVQAGGSLRLSCAASGFIFSWNAMGWYRQAPGKERELVAVITWSGSRTNYADSVKGRFTISRDNAKNTVYLQMNSLKPEDTAVYYCATKGPVYTSSRPVSGGAYNYWGQGTQVTVSS” the “polyreactivity (PSR sort gate)” value was “low polyreactivity”. In the case of “QVQLVESGGGLVQAGGSLRLSCAASGFIFSYYALGWYRQATGKERELVAAITYSGVRTYYADSVKGRFTISRDNAKNTVYLQMNSLKPVDTAVYYCNTKHRTKPTRPDDYWGQGTQVTVSS”, the “polyreactivity (PSR sort gate)” value is reported as “high polyreactivity”. With “QVQLVESGGGLVQAGGSLRLSCAASGFIFSYYAMGWYRQAPGKERELVAAISSGGSTYYADSVKGRFTISRDNAKNTVYLQMNSLKPEDTAVYYCAAAIWYIKLYFVRRTEHGYWGQGTQVTVSS” the “polyreactivity (PSR sort gate)” value was “low polyreactivity”. In the case of “QVQLVESGGGLVQAGGSLRLSCAASGFIFSYYAMGWYRQAPGKERELVATITSGGSTNYADSVKGRFTISRDNAKNTVYLQMNSLKPEDTAVYYCNALPGVSHTQYDRVGYWGQGTQVTLSS”, the “polyreactivity (PSR sort gate)” value is reported as “high polyreactivity”. With “QVQLVESGGGLVQAGGSLRLSCAASGFIFSYYAMGWYRQAPGTERELVAVITFSVGSPYYADSVKGRFTISRDNAQNTVYLLMNSLKPEDTAVYYCAARSYACAKRAYYYWGQGTQVTVSS” the “polyreactivity (PSR sort gate)” value was “high polyreactivity”. With “QVQLVESGGGLVQAGGSLRLSCAASGFIFSYYTMGWYRQEPGTERELVADISWSGGSSYYADSVKGRFTISRDNAKNTVYLQMNSLKPEDTAVYYCNAEGWTAFLDQYDYWGQGTQVTVSS” the “polyreactivity (PSR sort gate)” value was “high polyreactivity”. With “QVQLVESGGGLVQAGGSLRLSCAASGFIFSYYVMGWYRQAPGKERELVAAINESGGRTYYADSVKGRFTISRDNAKNTVYLQMNSLKPEDTAVYYCAASVLNKIQGYRDYYWGQGTQVTVSS” the “polyreactivity (PSR sort gate)” value was “low polyreactivity”. With “QVQLVESGGGLVQAGGSLRLSCAASGFIFSYYVMGWYRQAPGKERELVAAINESGGRTYYADSVKGRFTISRDNAKNTVYLQMNSLKPEDTAVYYCATIPGYVYYWQYKYDYWGQGTQVTVSS” the “polyreactivity (PSR sort gate)” value was “low polyreactivity”. In the case of “QVQLVESGGGLVQAGGSLRLSCAASGFIFTDNVMGWYRQAPGKERELVAAISRGGGSTYYADSVKGRFTISRDNAKNTDYLQMNSLKPEDTAVYYCAAPTARSRSERDYWGQGTQVTVSS”, the “polyreactivity (PSR sort gate)” value is reported as “high polyreactivity”. With “QVQLVESGGGLVQAGGSLRLSCAASGFIFTDYTMGWYRQAPGKERELVAAIDSSGGGTHYADSVKGRFTISRDNAKNTVYLQMNSLKPEDTAVYYCAAADYLIQFWYQYDYWGQGTQVTVSS” the “polyreactivity (PSR sort gate)” value was “low polyreactivity”. In the case of “QVQLVESGGGLVQAGGSLRLSCAASGFIFTIYAMGWYRQAPGKERELVAAITWNGGRTYYADSVKGRFTISRDNAKNTVYLQMNSLKPEDTAVYYCAARYGRAYDYWGQGTQVTVSS”, the “polyreactivity (PSR sort gate)” value is reported as “high polyreactivity”. For “QVQLVESGGGLVQAGGSLRLSCAASGFIFTLYAMGWYRKAPGKEREFVAAISWSDGSTTYADSVKGRFTISRDNAKNTVYLQMNSLKPEDTAVYYCNTSYIIWYDSWGQGTQVTVSS”, the “polyreactivity (PSR sort gate)” value was “low polyreactivity”. For “QVQLVESGGGLVQAGGSLRLSCAASGFIFTRYAMGWYRQAPGKERELVAAIRWRGSSTYYADSVKGRFTISRDNAKNTVYLQMNSLKPEDTAVYYCAAQPSRSTYLAPSRDHWGQGTQVTVSS”, the “polyreactivity (PSR sort gate)” value was “low polyreactivity”. With “QVQLVESGGGLVQAGGSLRLSCAASGFIFTRYAMGWYRQAPGKERELVAAITRSGGRTYYADSVKGRFTISRDNAKNTVYLQMNSLKPEDTAVYYCAAEGSVGLYGLIMHYWGLGTQVTVSS” the “polyreactivity (PSR sort gate)” value was “high polyreactivity”. With “QVQLVESGGGLVQAGGSLRLSCAASGFIFTRYAMGWYRQAPGKERELVAGINRSGSRTYYADSVKGRFKISRDNAKNTVYLQMNSLKPEDTAVYYCATDTWYLYSTLDYWGQGTQVTVSS” the “polyreactivity (PSR sort gate)” value was “high polyreactivity”. For “QVQLVESGGGLVQAGGSLRLSCAASGFIFTTYAMGWYRQAPGKERELVAAISTSGGRTYYADSVKGRFTISRDNAKNTVYLQMNSLKPEDTAVYYCNTYSYYSYDWGQGTQVTVSS”, the “polyreactivity (PSR sort gate)” value was “high polyreactivity”. For “QVQLVESGGGLVQAGGSLRLSCAASGFIFTWYAMGWYRQAPGKEREVVAGISRSGGRTYYADSVKGRFTISRDNAKNTVYLQMNSLKPEDTAVYYCNAVLVGYRPYREFDHWGQGTQVTVSS”, the “polyreactivity (PSR sort gate)” value was “high polyreactivity”. For “QVQLVESGGGLVQAGGSLRLSCAASGFIFTYNAMGWYRQAPGKERELVAAMNSGGITYYADSVKGRFTISRDNAKNPVYLQMNSLKPEDTAVYYCAKRRQIGWITYDYCGQGTQVTVSS”, the “polyreactivity (PSR sort gate)” value was “low polyreactivity”. In the case of “QVQLVESGGGLVQAGGSLRLSCAASGFIFTYYAMGWYRQAPGKERELVAAISSRGTSTYYADSVKGRFTISRDNAKNTVYLQMNSLKPEDTAVYYCAAGKPKIPDDDYWGQGTQVTVSS”, the “polyreactivity (PSR sort gate)” value is reported as “high polyreactivity”. With “QVQLVESGGGLVQAGGSLRLSCAASGFIFTYYAMGWYRQAPGKERELVASITISGGSTYYADSVKGRFTISRDNAKNTVYLQMNSLKPEDTAVYYCNVVPWYYGYDYWGQGTQVTVSS” the “polyreactivity (PSR sort gate)” value was “high polyreactivity”. For “QVQLVESGGGLVQAGGSLRLSCAASGFIFTYYAMGWYRQAPGKERELVAVISWSGGTTYYADSVKGRFTISRDNAKNTVYLQMNSLKPEDTAVYYCAAGKVSFWLVFEYDYWGQGTQVTVSS”, the “polyreactivity (PSR sort gate)” value was “low polyreactivity”. In the case of “QVQLVESGGGLVQAGGSLRLSCAASGFIFTYYDMGWYRQAPGKERELVASISWDGGRTYYADSVKGRFTISRDNAKNTVYLQMNSLKPEDTAVYYCAKRLGGSPIQARGDYWGQGTQVTVSS”, the “polyreactivity (PSR sort gate)” value is reported as “low polyreactivity”. For “QVQLVESGGGLVQAGGSLRLSCAASGFIFTYYGMGWYRQAPGKERELVAAITWSGASTYYADSVKGRFTISRDNAKNTVYLQMNSLKPEDTAVYYCNAGWDSGIVQSDETVYKYDYWGQGTQVTVSS”, the “polyreactivity (PSR sort gate)” value was “low polyreactivity”. With “QVQLVESGGGLVQAGGSLRLSCAASGFIFVAYAMGWYRQAPGKERELVATIDSSGGTTYYADSVKGRFTISRDNAKNTVYLQMNSLKPEDTAVYYCNAPIYPYREFGRDYWGQGTQVTVSS” the “polyreactivity (PSR sort gate)” value was “low polyreactivity”. For “QVQLVESGGGLVQAGGSLRLSCAASGFIFVGNAMGWYRQAPGKERELVAAISSGTSTNYADSVKGRFTISRDNAKNTVYLQMNSLKPEDTAVYYCNAEVPATNEYTKRMDYWGQGTQVTVSS”, the “polyreactivity (PSR sort gate)” value was “low polyreactivity”. For “QVQLVESGGGLVQAGGSLRLSCAASGFIFVGYAMGWYRQAPGKERELVAAITDGGRTKYADSVKGRFTISRDNAKNTVYLQMNSLKPEDTAVYYCAADDLHTYYTLDYWGQGTQVTVSS”, the “polyreactivity (PSR sort gate)” value was “high polyreactivity”. With “QVQLVESGGGLVQAGGSLRLSCAASGFIFVHNAMGWYRPAPGKERELVAAIRSRGGSTYYADSVKGRFTISRDNAKNTVYLQMNSLKPEDTAVDDCAADGAVVSSSRKFGYWGQGTQVTVSS” the “polyreactivity (PSR sort gate)” value was “low polyreactivity”. In the case of “QVQLVESGGGLVQAGGSLRLSCAASGFIFVHNAMGWYRQAPGKERELVAAITSRGRTYYADSVKGRFTISRDNAKNTVYLQMNSLKPEDTAVYYCNAYWRGEYRYDSWGQGTQVTVSS”, the “polyreactivity (PSR sort gate)” value is reported as “high polyreactivity”.
